33 molecules from article PMC12416549 (2024) can be followed below.

B1: R65P (designed binder)
chain: SMEEEVEKAAKEYEKKKKEAIEKHLEKLKAKDKEAAERFLKELEEAAKEYAKDEAKTMSEEEAKPRAKKYKEKVLLSELSEEEQKEIKEAEEKLVRTILKYVEEAAK
B2: R65T (designed binder)
chain: SMEEEVEKAAKEYEKKKKEAIEKHLEKLKAKDKEAAERFLKELEEAAKEYAKDEAKTMSEEEAKTRAKKYKEKVLLSELSEEEQKEIKEAEEKLVRTILKYVEEAAK
B3: E44Y (designed binder)
chain: SMEEEVEKAAKEYEKKKKEAIEKHLEKLKAKDKEAAERFLKELYEAAKEYAKDEAKTMSEEEAKRRAKKYKEKVLLSELSEEEQKEIKEAEEKLVRTILKYVEEAAK
B4: K8R (designed binder)
chain: SMEEEVERAAKEYEKKKKEAIEKHLEKLKAKDKEAAERFLKELEEAAKEYAKDEAKTMSEEEAKRRAKKYKEKVLLSELSEEEQKEIKEAEEKLVRTILKYVEEAAK
B5: Y13P (designed binder)
chain: SMEEEVEKAAKEPEKKKKEAIEKHLEKLKAKDKEAAERFLKELEEAAKEYAKDEAKTMSEEEAKRRAKKYKEKVLLSELSEEEQKEIKEAEEKLVRTILKYVEEAAK
B6: A67E (designed binder)
chain: SMEEEVEKAAKEYEKKKKEAIEKHLEKLKAKDKEAAERFLKELEEAAKEYAKDEAKTMSEEEAKRREKKYKEKVLLSELSEEEQKEIKEAEEKLVRTILKYVEEAAK
B7: E5H (designed binder)
chain: SMEEHVEKAAKEYEKKKKEAIEKHLEKLKAKDKEAAERFLKELEEAAKEYAKDEAKTMSEEEAKRRAKKYKEKVLLSELSEEEQKEIKEAEEKLVRTILKYVEEAAK
B8: E14A (designed binder)
chain: SMEEEVEKAAKEYAKKKKEAIEKHLEKLKAKDKEAAERFLKELEEAAKEYAKDEAKTMSEEEAKRRAKKYKEKVLLSELSEEEQKEIKEAEEKLVRTILKYVEEAAK
B9: L43F (designed binder)
chain: SMEEEVEKAAKEYEKKKKEAIEKHLEKLKAKDKEAAERFLKEFEEAAKEYAKDEAKTMSEEEAKRRAKKYKEKVLLSELSEEEQKEIKEAEEKLVRTILKYVEEAAK
B10: M2F (designed binder)
chain: SFEEEVEKAAKEYEKKKKEAIEKHLEKLKAKDKEAAERFLKELEEAAKEYAKDEAKTMSEEEAKRRAKKYKEKVLLSELSEEEQKEIKEAEEKLVRTILKYVEEAAK
B11: Y50A (designed binder)
chain: SMEEEVEKAAKEYEKKKKEAIEKHLEKLKAKDKEAAERFLKELEEAAKEAAKDEAKTMSEEEAKRRAKKYKEKVLLSELSEEEQKEIKEAEEKLVRTILKYVEEAAK
B12: E82W (designed binder)
chain: SMEEEVEKAAKEYEKKKKEAIEKHLEKLKAKDKEAAERFLKELEEAAKEYAKDEAKTMSEEEAKRRAKKYKEKVLLSELSEWEQKEIKEAEEKLVRTILKYVEEAAK
B13: A46W (designed binder)
chain: SMEEEVEKAAKEYEKKKKEAIEKHLEKLKAKDKEAAERFLKELEEWAKEYAKDEAKTMSEEEAKRRAKKYKEKVLLSELSEEEQKEIKEAEEKLVRTILKYVEEAAK
B14: K64C (designed binder)
chain: SMEEEVEKAAKEYEKKKKEAIEKHLEKLKAKDKEAAERFLKELEEAAKEYAKDEAKTMSEEEACRRAKKYKEKVLLSELSEEEQKEIKEAEEKLVRTILKYVEEAAK
B15: E72M (designed binder)
chain: SMEEEVEKAAKEYEKKKKEAIEKHLEKLKAKDKEAAERFLKELEEAAKEYAKDEAKTMSEEEAKRRAKKYKMKVLLSELSEEEQKEIKEAEEKLVRTILKYVEEAAK
B16: V95D (designed binder)
chain: SMEEEVEKAAKEYEKKKKEAIEKHLEKLKAKDKEAAERFLKELEEAAKEYAKDEAKTMSEEEAKRRAKKYKEKVLLSELSEEEQKEIKEAEEKLDRTILKYVEEAAK
B17: L99S (designed binder)
chain: SMEEEVEKAAKEYEKKKKEAIEKHLEKLKAKDKEAAERFLKELEEAAKEYAKDEAKTMSEEEAKRRAKKYKEKVLLSELSEEEQKEIKEAEEKLVRTISKYVEEAAK
B18: R65W (designed binder)
chain: SMEEEVEKAAKEYEKKKKEAIEKHLEKLKAKDKEAAERFLKELEEAAKEYAKDEAKTMSEEEAKWRAKKYKEKVLLSELSEEEQKEIKEAEEKLVRTILKYVEEAAK
B19: L76V (designed binder)
chain: SMEEEVEKAAKEYEKKKKEAIEKHLEKLKAKDKEAAERFLKELEEAAKEYAKDEAKTMSEEEAKRRAKKYKEKVLVSELSEEEQKEIKEAEEKLVRTILKYVEEAAK
B20: A63V (designed binder)
chain: SMEEEVEKAAKEYEKKKKEAIEKHLEKLKAKDKEAAERFLKELEEAAKEYAKDEAKTMSEEEVKRRAKKYKEKVLLSELSEEEQKEIKEAEEKLVRTILKYVEEAAK
B21: M2S (designed binder)
chain: SSEEEVEKAAKEYEKKKKEAIEKHLEKLKAKDKEAAERFLKELEEAAKEYAKDEAKTMSEEEAKRRAKKYKEKVLLSELSEEEQKEIKEAEEKLVRTILKYVEEAAK
B22: L94K (designed binder)
chain: SMEEEVEKAAKEYEKKKKEAIEKHLEKLKAKDKEAAERFLKELEEAAKEYAKDEAKTMSEEEAKRRAKKYKEKVLLSELSEEEQKEIKEAEEKKVRTILKYVEEAAK
B23: T57S (designed binder)
chain: SMEEEVEKAAKEYEKKKKEAIEKHLEKLKAKDKEAAERFLKELEEAAKEYAKDEAKSMSEEEAKRRAKKYKEKVLLSELSEEEQKEIKEAEEKLVRTILKYVEEAAK
B24: K68H (designed binder)
chain: SMEEEVEKAAKEYEKKKKEAIEKHLEKLKAKDKEAAERFLKELEEAAKEYAKDEAKTMSEEEAKRRAHKYKEKVLLSELSEEEQKEIKEAEEKLVRTILKYVEEAAK
B25: D53H (designed binder)
chain: SMEEEVEKAAKEYEKKKKEAIEKHLEKLKAKDKEAAERFLKELEEAAKEYAKHEAKTMSEEEAKRRAKKYKEKVLLSELSEEEQKEIKEAEEKLVRTILKYVEEAAK
B26: E62I (designed binder)
chain: SMEEEVEKAAKEYEKKKKEAIEKHLEKLKAKDKEAAERFLKELEEAAKEYAKDEAKTMSEEIAKRRAKKYKEKVLLSELSEEEQKEIKEAEEKLVRTILKYVEEAAK
B27: E91W (designed binder)
chain: SMEEEVEKAAKEYEKKKKEAIEKHLEKLKAKDKEAAERFLKELEEAAKEYAKDEAKTMSEEEAKRRAKKYKEKVLLSELSEEEQKEIKEAWEKLVRTILKYVEEAAK
B28: E5L (designed binder)
chain: SMEELVEKAAKEYEKKKKEAIEKHLEKLKAKDKEAAERFLKELEEAAKEYAKDEAKTMSEEEAKRRAKKYKEKVLLSELSEEEQKEIKEAEEKLVRTILKYVEEAAK
B29: D32R (designed binder)
chain: SMEEEVEKAAKEYEKKKKEAIEKHLEKLKAKRKEAAERFLKELEEAAKEYAKDEAKTMSEEEAKRRAKKYKEKVLLSELSEEEQKEIKEAEEKLVRTILKYVEEAAK
B30: E7V (designed binder)
chain: SMEEEVVKAAKEYEKKKKEAIEKHLEKLKAKDKEAAERFLKELEEAAKEYAKDEAKTMSEEEAKRRAKKYKEKVLLSELSEEEQKEIKEAEEKLVRTILKYVEEAAK
B31: E49Y (designed binder)
chain: SMEEEVEKAAKEYEKKKKEAIEKHLEKLKAKDKEAAERFLKELEEAAKYYAKDEAKTMSEEEAKRRAKKYKEKVLLSELSEEEQKEIKEAEEKLVRTILKYVEEAAK
B32: L99I (designed binder)
chain: SMEEEVEKAAKEYEKKKKEAIEKHLEKLKAKDKEAAERFLKELEEAAKEYAKDEAKTMSEEEAKRRAKKYKEKVLLSELSEEEQKEIKEAEEKLVRTIIKYVEEAAK
B33: V74T (designed binder)
chain: SMEEEVEKAAKEYEKKKKEAIEKHLEKLKAKDKEAAERFLKELEEAAKEYAKDEAKTMSEEEAKRRAKKYKEKTLLSELSEEEQKEIKEAEEKLVRTILKYVEEAAK

This test has as its target T1, TNFR1 (Homo sapiens, UniProt P19438).
T1 chain: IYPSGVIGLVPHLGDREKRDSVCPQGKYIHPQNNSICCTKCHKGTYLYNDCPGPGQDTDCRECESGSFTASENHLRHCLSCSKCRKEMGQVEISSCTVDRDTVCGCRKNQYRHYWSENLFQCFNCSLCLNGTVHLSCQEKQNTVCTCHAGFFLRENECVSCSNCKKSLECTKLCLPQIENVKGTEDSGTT
Description: yeast display SC50.
As for B1, the “apparent Kd (screen)” value was determined as 20.2 nM.

With B2, the “apparent Kd (screen)” value was 2.05 nM.

For the molecule B3, the “apparent Kd (screen)” value came out at 1.54 nM.

Consider B4, for which the “apparent Kd (screen)” value was 0.869 nM.

As for B5, the “apparent Kd (screen)” value was 13.8 nM.

As for B6, the “apparent Kd (screen)” value amounted to 15.2 nM.

On to B7, for which the “apparent Kd (screen)” value came to 0.446 nM.

As to B8, the “apparent Kd (screen)” value was found to be 3 nM.

B9: the “apparent Kd (screen)” value was found to be 13.8 nM.

As for B10, the “apparent Kd (screen)” value was 1.05 nM.

For the molecule B11, the “apparent Kd (screen)” value was found to be 29.5 nM.

Regarding B12, the “apparent Kd (screen)” value was 0.539 nM.

B13: the “apparent Kd (screen)” value was determined as 2.25 nM.

Consider B14, for which the “apparent Kd (screen)” value was determined as 0.79 nM.

Consider B15, for which the “apparent Kd (screen)” value came to 1.69 nM.

For B16, the “apparent Kd (screen)” value turned out to be 5.84 nM.

Take B17: the “apparent Kd (screen)” value turned out to be 11.4 nM.

Take B18: the “apparent Kd (screen)” value was 11.4 nM.

As to B19, the “apparent Kd (screen)” value turned out to be 1.4 nM.

Take B20: the “apparent Kd (screen)” value was determined as 15.2 nM.

With B21, the “apparent Kd (screen)” value was determined as 0.446 nM.

In the case of B22, the “apparent Kd (screen)” value was determined as 1.4 nM.

As to B23, the “apparent Kd (screen)” value was 1.27 nM.

On to B24, for which the “apparent Kd (screen)” value was 1.4 nM.

As to B25, the “apparent Kd (screen)” value was 1.69 nM.

Regarding B26, the “apparent Kd (screen)” value is 2.73 nM.

For B27, the “apparent Kd (screen)” value is 6.43 nM.

On to B28, for which the “apparent Kd (screen)” value stood at 0.49 nM.

B29: the “apparent Kd (screen)” value was found to be 3.99 nM.

B30: the “apparent Kd (screen)” value is 7.78 nM.

Take B31: the “apparent Kd (screen)” value amounted to 26.9 nM.

As to B32, the “apparent Kd (screen)” value is 2.05 nM.

On to B33, for which the “apparent Kd (screen)” value was 16.7 nM.
